Laboratory results: patent US20120077210A1 (COMMONWEALTH SCIENTIFIC AND INDUSTRIAL RESEARCH ORGANISATION, published 2012)

Molecular target: T1, Odr10 labelled with GFP2 at the C-terminus (C. elegans)
T1 construct: Fusion protein expressed in S. cerevisiae Invsc1; Assayed in living yeast cells (BRET2) and as digitonin-solubilised crude membrane (co-immunoprecipitation); also called odr-10-GFP2; Odr10-GFP2
Experiment: co-immunoprecipitation with anti-GFP antibody from a mixture of solubilised membranes that expressed each fusion separately (control)
Procedure: Membrane protein solubilisation and immunoprecipitation procedures were modified according to the method described by Ayoub et al. (2002). Crude membrane was solubilised with 0.5% digitonin (Sigma) and this mixture was stirred for 3 h at 4° C. Non-solubilised membrane proteins were removed by centrifugation at 18,000×g for 30 mins at 4° C. The digitonin concentration was adjusted to 0.2% using cold Buffer B and the polyclonal anti-GFP antibodies (Sapphire Bioscience, Cat No 120-29000) were added to a final dilution of 1:1000. Immune complex formation was allowed to proceed for 12 h at 4° C. with gentle agitation and Protein A-agarose suspension (Sigma) was added to a final volume of 1:10 (agarose suspension:sample) for incubation for another 6 h with gentle agitation at 4° C. After centrifugation for 1 min at 5000×g, supernatant was decanted and the agarose beads washed five times with 0.5 ml of cold Buffer C (Buffer B+0.2% digitonin). Precipitates were analysed by assessing luciferase activity in a luminometer (BMGLabtech) using coelenterazine as substrate (Biosynth AG, Switzerland).
Oligomerisation of Odr-10 in the living yeast cells was confirmed by the pairwise expression of receptor-Rluc and -GFP² fusion, followed by precipitation using anti-green fluorescence protein antibodies and measuring co-immunoprecipitated luciferase activity. […]

luciferase activity recovered relative to co-expressed odr-10-GFP^2 and odr-10-Rluc: < 20%
B1: Odr10 labelled with Rluc at the C-terminus (receptor)
chain: MSGELWITLVDTADIVGVTLTFCVNIVLLGLLKTRGKNLGTYKYLMAFFSVFSIFYAIIEFILRPIMHIENTTFFLISRKRFNYSTKLGKINSAFYCACFATSFVVSGVHFVYRYFATCKPNLLRLFNLPTLLLWPLGCSVPVTMWASVSYFLYPDTEYTEAAVTNVLNNHYNWIKKENVSYIAYVYYQYENGVRHIYLKNLLGCFVHYFVMSMTFVVMFYCGYATWKTMNEHKDVSDRTRALQKQLFKALVLQTLIPTIFMYAPTGVMFIAPFFDVNLNANANFIVFCSFLYPGLDPLILILIIRDFRRTIFNFLCGKKNSVDESRSTTRANLSQVPTMTSKVYDPEQRKRMITGPQWWARCKQMNVLDSFINYYDSEKHAENAVIFLHGNAASSYLWRHVVPHIEPVARCIIPDLIGMGKSGKSGNGSYRLLDHYKYLTAWFELLNLPKKIIFVGHDWGACLAFHYSYEHQDKIKAIVHAESVVDVIESWDEWPDIEEDIALIKSEEGEKMVLENNFFVETMLPSKIMRKLEPEEFAAYLEPFKEKGEVRRPTLSWPREIPLVKGGKPDVVQIVRNYNAYLRASDDLPKMFIESDPGFFSNAIVEGAKKFPNTEFVKVKGLHFSQEDAPDEMGKYIKSFVERVLKNEQ
notes: Fusion protein expressed in S. cerevisiae Invsc1; Assayed in living yeast cells (BRET2) and as digitonin-solubilised crude membrane (co-immunoprecipitation); also called odr-10-Rluc; Odr10-Rluc
